Results on 3 molecules are retold here after publication PMC9580340 (Science (New York, N.y.), 2022).

The target of assay [1] is SARS-CoV-2 B.1.1.529 (Omicron; BA.1) spike, full length, on transfected 293T cells (SARS-CoV-2 B.1.1.529 (Omicron BA.1), A67V | H69del | V70del | T95I | G142D | V143del | Y144del | Y145del | N211del | …). The experiment in a line: flow cytometry on cells. To be noted: one partner purified. For orientation: Flow cytometry measures light scatter and fluorescence of single cells or particles in a stream.

The target of assay [2] is T1, SARS-CoV-2 D614G spike, full length, on transfected 293T cells (SARS-CoV-2, QHD43416.1 (Wuhan-Hu-1) …, UniProt A0A6H1PJZ3, D614G).
T1 construct: also called ancestral D614G spike
The experiment in a line: flow cytometry on cells. To be noted: one partner purified.

The target of assay [3] is T2, SARS-CoV-2 B.1.1.529 (Omicron) S2P spike, trimeric ectodomain (cryo-EM) (SARS-CoV-2 B.1.1.529 (Omicron BA.1), …, A67V | H69del | V70del | T95I | G142D | V143del | Y144del | Y145del | N211del | …).
T2 construct: also called B.1.1.529 spike; B.1.1.529 S2P spike
The experiment in a line: cryo-EM structure. To be noted: both partners purified.

B1: A19-46.1 IgG1 (antibody, V domains shown)
VH: QVQLVESGGGVVQPGRSLRLSCAASGFTLSSYGMHWVRQAPGKGLEWVAVISYDGSNKYYVDSVKGRFTISRDNSKNTLYLQMNSLRAEDTAVYYCARGWAYWELLPDYYYGMDVWGQGTTVTVSS
VL: QTVVTQEPSFSVSPGGTVTLTCGLSSGSVSTAYFPSWYQQTPGQAPRTLIYGTNTRSSGVPDRFSGSILGNKAALTITGAQADDESDYYCVLYMGRGIVVFGGGTKLTVL
Turning to B1, in assay [1], the “binding as percent of D614G” value was 47 % of D614G. The binding result in assay [2] is “binds”.

B2: Fab A19-46.1 (Fab, V domains shown)
VH: B1 VH
VL: B1 VL
notes: 17-residue-long CDR H3
Regarding B2, the stoichiometry N – broadly, a count of units in the complex or per binding partner – in assay [3] is 2 Fabs per spike trimer.

B3: A19-61.1 IgG1 (antibody, V domains shown)
VH: QVQLVESGGGVVQPGRSLRLSCAASGFTFSSYAFHWVRQAPGKGLEWVAVISYDGSNQYYADSVKGRFTISRDNSKNTLYLQMNSLRADDTAVYYCARDLAIAVAGTWHYYNGMDVWGQGTTVTVSS
VL: DIQMTQSPSSVSASVGDRVIITCRASQGISSWLAWYQQKPGKAPKVLIYDASSLQSGVPSRFSGSGYGTDFTLTISSLQPEDSATYYCQQAKSFPITFGQGTRLEIK
With B3, in assay [2], the binding result was “binds”.
